The RNAGym collection of RNA variant scans (doi:10.1073/pnas.2313332121)
Fewer inactive variants are shown than the library holds.

B1: TPR 5TU (parent)
chain: GGAUCUUCUCGAUCUAACAAAAAAGACAAAUCUGCCACAAAGCUUGAGAGCAUCUUCGGAUGCAGAGGCGGCAGCCUUCGGUGGCGCGAUAGCGCCAACGUUCUCAACUAUGACACGCAAAACGCGUGCUCCGUUGAAUGGAGUUUAUCAUG

Variants of: B1
Test: polymerase ribozyme fitness, log enrichment relative to wild type (log ratio); higher = more active; in vitro selection for triplet polymerase activity
Summary of the method: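 Each subunit of a heterodimeric triplet polymerase ribozyme was represented by a PCR-built, transcribed mutant library that underwent triplicate single-round in vitro selection with frozen incubation at −7 °C. Extended constructs were recovered by gel excision, streptavidin-bead capture and RT-PCR, and Illumina sequencing of input and output libraries kept genotypes with ≥10 input reads and ≥1 read per output. Fitness is the logarithm of genotype enrichment relative to wild-type enrichment, from inverse-variance-weighted replicate averages, with a logarithm base of 2.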

Polymerase ribozyme fitness (log ratio), ≤ -4.2:
GGAUCUUCUCGAUCUAACAAAAAAGACAAAUCUGCCACAAAGCUUGAGAGCAUCUUCGGAUGCAGGGGCGGCAGCCUUCGGUGGCGCUAUAGCGCCAACGUUCUCAACUAUGACACGCGAAACGCGUGCUCCGUUGAAGGGAGUUUAUCAUG [A66G G88U A119G U139G]
GGAUCUUCUCGAUCUAACAAAAAAGACAAAUCUGCCACAAAGCUUGAGAGCAUCUUCGGAUGCAGACGCGGCAGCCUUCGGUGGCGCGAUAGCAGCAACGUUCUCAACUAUGACACGCAAAACGCGUGCUCCGUUGAAUGGAGUUUAUCGUG [G67C G94A C95G A150G]
GGAUCUUCUCGAUCUAACAAAAAAGACAAAUCUGCCACAAAGCUUGAGAGCAUCUUCGGAUGCAGACGCGGCAGCCUUCGGUGGCGCUAUAGCGCCAACGUUCUCAACUAUGACACGCAAAACGCGUGCUCCGUUGAAUGGAGUUUAUAAUG [G67C G88U C149A]
GGAUCUUCUCGAUCUAACAAAAAAGACAAAUCUGCCACAAAGCUUGAGAGCAUCUUCGGAUGCAGAUGCGGCACCCUUCGGUGGCGCGAUAGCGCCAACGUUCUCAUCUAUGACACGCAAAAGGCGUGCUCCGUUGAAUGGAGUUUAUCAUG [G67U G74C A107U C123G]
GGAUCUUCUCGAUCUAACAAAAAAGACAAAUCUGCCACAAAGCUUGAGAGCAUCUUCGGAUGCAGACCCGGCAGCCUUCGGUGGCGCGAUAGCGCCAACGUUCUCAACUAUGACACGUAGAACGCGUGCUCCGUUGAAUGGAGUUUAUCAUG [G67C G68C C118U A120G]
GGAUCUUCUCGAUCUAACAAAAAAGACAAAUCUGCCACAAAGCUUGAGAGCAUCUUCGGAUGCAGACGCGGCAGCCUUGGGUGGCGCGAUAGCGCCUACGUUCUCAACUAUGACAAGCAAAACGCGUGCUCCGUUGAAUGGCGUUUAUCAUG [G67C C79G A97U C116A A142C]
GGAUCUUCUCGAUCUAACAAAAAAGACAAAUCUGCCACAAAGCUUGAGAGCAUCUUCGGAUGCAGAAGCGGCAGCCUUCGGUGGCGUGAUAGCGCCAACGUUUUCAACUAUGAGAUGCGAAACGCGUGCUCCGUUGAAUGGAGUUUAUCAUG [G67A C87U C103U C114G C116U A119G]
GGAUCUUCUCGAUCUAACAAAAAAGACAAAUCUGCCACAAAGCUUGAGAGCAUCUUCGGAUGCAGUGGCGGCAGCCUUCGGUGGUGCGAUAGCGCCAACGUCCUCAGCUAUGACACGCAAAACGCGUGCUCCGUUGAAUGGACUUUAUCAUG [A66U C85U U102C A107G G143C]
GGAUCUUCUCGAUCUAACAAAAAAGACAAAUCUGCCACAAAGCUUGAGAGCAUCUUCGGAUGCAGAUGCUGCAGCCUUCGAUUGCGCGAUAGCGCCUACGUUCUCAACUAUGACACGCAAAACGCGUGCUCCGUUGAAUGGAGUUUAUCAUG [G67U G70U G81A G83U A97U]
GGAUCUUCUCGAUCUAACAAAAAAGACAAAUCUGCCACAAAGCUUGAGAGCAUCUUCGGAUGCAGACGCGGCAGCCUUCGGUGGCGCGAUAGAGCCAACGUUCUCAACUAUGACACGCAAAACGCGUGCUCCAUUGAAUGGAGUUUAUCAGG [G67C C93A G133A U151G]
GGAUCUUCUCGAUCUAACAAAAAAGACAAAUCUGCCACAAAGCUUGAGAGCAUCUUCGGAUGCAGGGGCGGCAGCCUUCGGUGGCGCGAUAGCGCCAACGUUCACAACUAUGACACGCAAAACGCGUGCUCCGGUCAAUGGAGUUUAUCAUG [A66G U104A U134G G136C]
GGAUCUUCUCGAUCUAACAAAAAAGACAAAUCUGCCACAAAGCUUGAGAGCAUCUUCGGAUGCAGAAGCGGAAGCCUUCGGUGGCGCGAUAGCGCCAACGUUCUCAACUAUGACACGCAAAACGCGUGCUCCGUUGAAUGGUGUUUAUCGUG [G67A C72A A142U A150G]
GGAUCUUCUCGAUCUAACAAAAAAGACAAAUCUGCCACAAAGCUUGAGAGCAUCUUCGGAUGCAGACGCGGCAGCCUUCGGUGGCGCGAUAGCGCCAACGUUCUCAACUAUGACACGCAAAACGGGUGCUCCGUUGAAUGGAGUUUAUCAUG [G67C C125G]
GGAUCUUCUCGAUCUAACAAAAAAGACAAAUCUGCCACAAAGCUUGAGAGCAUCUUCGGAUGCAGAUGCGGCAGCCUUCGGUGGCGUGAUAGCGCCAACGUUCGCAACUAUGACACGCAAAACGCGUGCUCGGUUGAAUGGAGCUUAGCAUG [G67U C87U U104G C132G U144C U148G]
GGAUCUUCUCGAUCUAACAAAAAAGACAAAUCUGCCACAAAGCUUGAGAGCAUCUUCGGAUGCAGUGGCGGCAGCCUUCGGUGGCGGGAGAGCGCCAACGUACUCAACUAUGACACGCAAAACGCGUGCUCUGUUGAAUGGAGUUUAUCAUG [A66U C87G U90G U102A C132U]
GGAUCUUCUCGAUCUAACAAAAAAGACAAAUCUGCCACAAAGCUUGAGAGCAUCUUCGGAUGCAGAAGCGGCAGCCUUCGGUAGCGCGAUAGCGCCAACGUUCUCAACUAUGACACGCAAAACGCGUGCUCCGUUGAAUGGAGUUUAUCAUG [G67A G83A]
GGAUCUUCUCGAUCUAACAAAAAAGACAAAUCUGCCACAAAGCUUGAGAGCAUCUUCGGAUGCAGACGCGGCAGCCUUCGGUGGUGCGAUAGCGCCAACGUUCUCAACUAUGACACGCAAAACGCUUGCUCCCUUGAAUGGAAUUUAUCAUG [G67C C85U G126U G133C G143A]

Polymerase ribozyme fitness (log ratio), -3.77:
GGAUCUUCUCGAUCUAACAAAAAAGACAAAUCUGCCACAAAGCUUGAGAGCAUCUUCGGAUGCAGGGGCGGCAGCCUUCGGUGGCGCGAUACCGCCAACGUUCUCAACUAUGACACGCAAAACGCGUGCUCCGUUGAAUGGAGUUUAUCAUG [A66G G92C]

Polymerase ribozyme fitness (log ratio), -3.31:
GGAUCUUCUCGAUCUAACAAAAAAGACAAAUCUGCCACAAAGCUUGAGAGCAUCUUCGGAUGCAGAUGCGGCAGCCUUCGGUGGCGCGAUAGCGCGAACGUUCUCAACUAUGACACGCAAAACGCGUGCUCCGUUGAAUGGAGUUUAUCAUG [G67U C96G]
